{"source": "patent US6379938B1", "about": "“Epoxide hydrolase” (Puratos N.V., priority 1997, dated 2002)", "molecules": {"B1": {"name": "cis-epoxysuccinate hydrolase: 253 amino acid, 28 kDa epoxide hydrolase of Rhodococcus rhodochrous LMGP-18079, expressed in E. coli from plasmid pREHXS (protein)", "chain": "MQLNNANDNTQFRALLFDVQGTLTDFRSTLIEHGLSILGDRVDRELWEELVDQWRGCYRDELDSLVKQEKWRSVRAVYRDSLINLLAKFSDSFCATSAEVELLTDGWERLRSWPDVPSGLEQLRSKYLVAALTNADFSAIVNVGRSAKLQWDAVLSAQLFGAYKPHRSTYEGAATLLGIAPSEILMVASHAYDLEAAREVGAGTAYVRRPLEYGPTGRTEDVPDGRFDFLVDSISELADQLGCPRLGGTAGID"}}, "key": {"[1]": {"experiment": "Determination of the cis-epoxysuccinate-hydrolase activity (L-tartaric acid formed, HPLC)", "format": "biochemical", "settings": "cells of Escherichia coli DH10B containing plasmid pREHXS, overnight culture; 37° C., pH 8.0; activity = amount of L(+)-tartaric acid formed in a day by 1 gram of dried cells", "description": "The enzymatic reaction is performed at 37° C. in a final volume of 9.3 ml that contains the following components: 0.7 ml of 0.1N Tris.HCl buffer pH 8.0, 2.6 ml of a 1.14% Triton X-100 solution, 5.0 ml of a 30% sodium cis-epoxysuccinate solution and 1.0 ml of the cell suspension. The reaction is stopped by diluting the mixture between 100 and 500 times with H2O acidified to pH 2.2 with H3PO4.\nThe amount of L-tartaric acid formed during the reaction is determined by HPLC at room temperature on a Vydac C18 column (cat no. 201HS3410) with a flow rate between 400 and 600 μl/min and a sample volume of 20 μl. The solvent is the same as the one used to dilute the samples. The detection of cis-epoxysuccinate and tartaric acid occurs at 210 nm.\nActivity is expressed as the amount of L(+)-tartaric acid formed in a day by 1 gram of dried cells.\nThe Escherichia coli strain DH10B containing the plasmid pREHXS is cultivated overnight in 2×LB medium (Yeast Extract 1%, Bacto-tryptone 2%, NaCl 2%) supplemented with 100 μg/ml of ampicillin. The same strain with the pBluescriptSK(+) plasmid without insert is used as a control.\nThe activity of the cis-epoxysuccinate hydrolase is determined in the cells collected from the two cultures using the protocol described in example 1. No activity could be detected in the control. About 150 units is present in the strain expressing the cis-epoxysuccinate gene."}, "[2]": {"experiment": "pH activity profile of the epoxide hydrolase (FIG. 5)", "format": "biochemical", "settings": "pH between 7.0 and 10 (FIG. 5)", "text": "The isolated and purified epoxide hydrolase amino acid sequence according to the invention is also characterised by an advantageous pH activity profile having a high enzymatic activity (more than 80% of the optimum enzyme activity) between 7.0 and 10, preferably between 7.5 and 9.5 (see FIG. 5).\nFIG. 5 represents the relative enzymatic activity of the enzyme according to the invention.\nThis enzymatic activity is advantageously maintained constant at a pH higher than 7, preferably at a pH comprised between 7.0 and 10, more preferably at a pH comprised between 7.5 and 9.5."}}}
{"molecule": "B1", "values": [{"measurement": "activity of the cis-epoxysuccinate hydrolase", "setting": "[1]", "result": "About 150 units"}, {"measurement": "enzymatic activity relative to the optimum enzyme activity", "setting": "[2]", "result": "more than 80%"}]}
